Data set [1] deals with Recombinant Human FGFR 1 alpha (IIIc) Fc Chimera Protein. The data set can be described thus: Binding affinity of chemically synthesized cyclic peptide to immobilized FGFR by SPR. The following applies: 10 nmol/L cyclic peptide, 25° C., binding amount per one molecule of FGFR, chemically synthesized product. How it is done: The binding affinity of the cyclic peptide to FGFR was evaluated using a surface plasmon resonance (SPR) method.
A CM5 sensor chip (Cytiva, 29149603) was set in Biacore-T200 (manufactured by Cytiva) which is a surface plasmon resonance device, and an HBS-EP buffer (Cytiva, BR100826) was added as a running buffer at a flow rate of 10 μL/min to equilibrate the flow channel. Next, 70 μL of a mixed aqueous solution of 0.2 mol/L 1-(3-dimethylaminopropyl)-3-ethylcarbodiimide (EDC) and 0.05 mol/L N-hydroxysuccinimide (NHS) was added to activate the sensor chip. Then, Recombinant Human FGFR 1 alpha (IIIc) Fc Chimera Protein CF (R&D systems, 658-FR-050) prepared at 50 nmol/L in an Acetate 4.5 buffer (Cytiva, BR100350) was added thereto to perform immobilization at about 5000 RU. Thereafter, the blocking treatment was performed with an ethanolamine solution. In addition, in another flow channel of the same sensor chip, blocking treatment was performed immediately after activation without immobilizing FGFR.
A cyclic peptide diluted to 10 nmol/L using HBS-EP was added to each flow channel of the FGFR-immobilized sensor chip produced above at 25° C. for 10 minutes, then HBS-EP was allowed to flow as a running buffer for 30 minutes, and the binding of the cyclic peptide to FGFR was measured. Thereafter, a regeneration treatment of removing the bound cyclic peptide was performed by repeating the flow of a regeneration liquid in which sodium chloride powder was dissolved in Glysine 1.5 (Cytiva, BR100354) to a final concentration of 0.15 mol/L for 1 minute in each flow channel twice. The binding amount of the cyclic peptide was evaluated from the difference between the measured value of Biacore-T200 in the flow channel in which FGFR was immobilized and the measured value of Biacore-T200 in the flow channel in which FGFR was not immobilated, in a case where a 10 nmol/L cyclic peptide was allowed to flow.
The binding amount of the cyclic peptide evaluated above was normalized to the binding amount of the cyclic peptide molecules per one molecule of FGFR using the molecular weights of the cyclic peptide and FGFR, and the binding affinity to FGFR was evaluated according to the following evaluation criteria. The evaluation result preferably satisfies the evaluation criteria A, B, or C.
• A: The binding amount is 0.7 molecules of the cyclic peptide/one molecule of FGFR or more. • B: The binding amount is 0.5 molecules of the cyclic peptide/one molecule of FGFR or more and less than 0.7 molecules of cyclic peptide/one molecule of FGFR. • C: The binding amount is 0.1 molecules of cyclic peptide/one molecule of FGFR or more and less than 0.5 molecules of cyclic peptide/one molecule of FGFR. • D: The binding amount is less than 0.1 molecules of the cyclic peptide/one molecule of FGFR.
(In general: Surface plasmon resonance follows binding to a sensor surface in real time, without labels.)

Data set [2] in a line: Molecular stability of cyclic peptide after reducing agent (DTT) treatment, LC. The settings on record: residual rate after 12.6 mmol/L DTT aqueous solution, room temperature, 1 hour. In kind it is physicochemical. The method, then: The molecular stability of the cyclic peptide was evaluated by analyzing an aqueous solution of the cyclic peptide treated with a reducing agent by liquid chromatography (LC).
The reducing agent treatment was performed under the following conditions based on the concentration of glutathione contained in the cells. 25 μL of a 0.2 mg/mL cyclic peptide aqueous solution was prepared, 58.8 μL of a 12.6 mmol/L DTT aqueous solution was added to the aqueous solution, and the mixture was incubated at room temperature for 1 hour to obtain an aqueous solution of the cyclic peptide treated with a reducing agent. The DTT aqueous solution was used by diluting a 1 mol/L (+-)-dithiothreitol (DTT) solution (FUJIFILM Wako Pure Chemical Corporation, 044-33871) with water. The total area of all the peaks in LC/MS of the cyclic peptide before the reducing agent treatment was set to 100%, and the proportion of the total area of all the peaks in LC/MS of the aqueous solution of the cyclic peptide treated with the reducing agent was determined to calculate the residual rate of the cyclic peptide, and the molecular stability was evaluated according to the following evaluation criteria. The evaluation result preferably satisfies the evaluation criteria A, B, or C.
• A: The residual rate of cyclic peptide is 90% or more. • B: The residual rate of the cyclic peptide is 70% or more and less than 90% • C: The residual rate of the cyclic peptide is 50% or more and less than 70% • D: The residual rate of the cyclic peptide is less than 50%
The LC used for the evaluation of molecular stability was set to the following conditions. • LC device: Prominence series (pump, column oven, autosampler, detector) (manufactured by Shimadzu Corporation) • Detector: photodiode array detector (SPD-M20A), measurement wavelength of 280 nm • Column: TSKgel ODS-100V, inner diameter of 4.6 mm×length of 150 mm, particle diameter of 5 μm (manufactured by Tosoh Corporation) • Eluent A: solution containing 0.1% trifluoroacetic acid as solute, and solvent is 100% water • Eluent B: solution containing 0.1% trifluoroacetic acid as solute, and solvent is 100% acetonitrile • Flow rate: 1.0 mL/min • Injection amount: 25 μL • Gradient: 20% to 50%: Eluent B (0 to 15 minutes), 100%: Eluent B (15 minutes) • Column temperature: 40° C.

Bridge positions count the residues as written; N and C are the ends. Square brackets hold non-standard residues; d marks the D form. Ends that are not written are not given here. NMeL = CN[C@@H](CC(C)C)C(=O)O; hCys = N[C@@H](CCS)C(=O)O; Orn = NCCC[C@H](N)C(=O)O

With “375 (HXSYERLQFHGHEAPFRVXVKKK; not fully specified; Description of Artificial Sequence: Cyclic peptide) [compound 375]”, in data set [1], the “Evaluation result of binding affinity to FGFR” value (“Evaluation result … to FGFR” for short) is given as “A (The binding amount is 0.7 molecules of the cyclic peptide/one molecule of FGFR or more.)”. In addition, the “Evaluation result of reductive stability” value in data set [2] is listed as “A (The residual rate of cyclic peptide is 90% or more.)”.

With “378 (HKSYERLQFHGHEAPFRVXVKKK; not fully specified; Description of Artificial Sequence: Cyclic peptide) [compound 378]”, the “Evaluation result … to FGFR” value in data set [1] is “A (The binding amount is 0.7 molecules of the cyclic peptide/one molecule of FGFR or more.)”. Moreover, in data set [2], the “Evaluation result of reductive stability” value is “A (The residual rate of cyclic peptide is 90% or more.)”.

In the case of “376 (HXSYERLQFHGHEAPFRVXVKKK; not fully specified; Description of Artificial Sequence: Cyclic peptide) [compound 376]”, the “Evaluation result … to FGFR” value in data set [1] was “A (The binding amount is 0.7 molecules of the cyclic peptide/one molecule of FGFR or more.)”. Moreover, the “Evaluation result of reductive stability” value in data set [2] is given as “A (The residual rate of cyclic peptide is 90% or more.)”.

Consider “387 (H[Orn]SYER[NMeL]IFHGHEAPFWV[hCys]VKKK; bridge 2-19; not fully specified (residue 2, bridges)) [compound 387]”, for which, in data set [1], the “Evaluation result … to FGFR” value was “A (The binding amount is 0.7 molecules of the cyclic peptide/one molecule of FGFR or more.)”. In addition, the “Evaluation result of reductive stability” value in data set [2] is “A (The residual rate of cyclic peptide is 90% or more.)”.

In the case of “383 (HCSYERLQFHGHEAPFRVCVKKK; disulfide 2-19) [compound 383]”, the “Evaluation result of reductive stability” value in data set [2] is recorded as “D (The residual rate of the cyclic peptide is less than 50%)”.

For “379 (HXSYERLQFHGHEAPFRVXVKKK; not fully specified; Description of Artificial Sequence: Cyclic peptide) [compound 379]”, in data set [1], the “Evaluation result … to FGFR” value is given as “A (The binding amount is 0.7 molecules of the cyclic peptide/one molecule of FGFR or more.)”. For the same substance, in data set [2], the “Evaluation result of reductive stability” value is “A (The residual rate of cyclic peptide is 90% or more.)”.

In the case of “386 ({CH2CO}-HASYERLIFHGHEAPFWVCVKKK; thioether N-19 (inferred)) [compound 386]”, the “Evaluation result … to FGFR” value in data set [1] was “B (The binding amount is 0.5 molecules of the cyclic peptide/one molecule of FGFR or more and less than 0.7 molecules of cyclic peptide/one molecule of FGFR.)”. Also, in data set [2], the “Evaluation result of reductive stability” value was “A (The residual rate of cyclic peptide is 90% or more.)”.

Take “385 ([Orn]SYERLIFHGHEAPFWV[hCys]KKK; bridge 1-18; not fully specified (residue 1, bridges); printed as (Orn(acetyl))-SYERLIFHGHEAPFWV-(Hcy)-KKK) [compound 385]”: in data set [1], the “Evaluation result … to FGFR” value was “C (The binding amount is 0.1 molecules of cyclic peptide/one molecule of FGFR or more and less than 0.5 molecules of cyclic peptide/one molecule of FGFR.)”. Further, the “Evaluation result of reductive stability” value in data set [2] was “A (The residual rate of cyclic peptide is 90% or more.)”.

With “374 (HXSYERLQFHGHEAPFRVKVKKK; not fully specified; Description of Artificial Sequence: Cyclic peptide) [compound 374]”, the “Evaluation result … to FGFR” value in data set [1] is listed as “A (The binding amount is 0.7 molecules of the cyclic peptide/one molecule of FGFR or more.)”. The “Evaluation result of reductive stability” value in data set [2] is “A (The residual rate of cyclic peptide is 90% or more.)”.

Consider “384 (H[Orn]SYERLIFHGHEAPFWV[hCys]VKKK; bridge 2-19; not fully specified (residue 2, bridges); printed as H-(Orn(acetyl))-SYERLIFHGHEAPFWV-(Hcy)-VKKK) [compound 384]”, for which the “Evaluation result … to FGFR” value in data set [1] is “A (The binding amount is 0.7 molecules of the cyclic peptide/one molecule of FGFR or more.)”. In data set [2], the “Evaluation result of reductive stability” value was “B (The residual rate of the cyclic peptide is 70% or more and less than 90%)”.

As for “390 ([Orn]SYERLIFHGHEAPFWV[hCys]VKKK; bridge 1-18; not fully specified (residue 1, bridges); printed as (Orn(acetyl))-SYERLIFHGHEAPFWV-(Hcy)-VKKK) [compound 390]”, the “Evaluation result … to FGFR” value in data set [1] is “C (The binding amount is 0.1 molecules of cyclic peptide/one molecule of FGFR or more and less than 0.5 molecules of cyclic peptide/one molecule of FGFR.)”. In addition, the “Evaluation result of reductive stability” value in data set [2] was “A (The residual rate of cyclic peptide is 90% or more.)”.

For the substance “377 (HXSYERLQFHGHEAPFRVXVKKK; not fully specified; Description of Artificial Sequence: Cyclic peptide) [compound 377]”, the “Evaluation result … to FGFR” value in data set [1] is listed as “A (The binding amount is 0.7 molecules of the cyclic peptide/one molecule of FGFR or more.)”. The “Evaluation result of reductive stability” value in data set [2] is reported as “A (The residual rate of cyclic peptide is 90% or more.)”.

On to “380 (HXSYERLQFHGHEAPFRVXVKKK; not fully specified; Description of Artificial Sequence: Cyclic peptide) [compound 380]”, for which, in data set [1], the “Evaluation result … to FGFR” value was “A (The binding amount is 0.7 molecules of the cyclic peptide/one molecule of FGFR or more.)”. In addition, in data set [2], the “Evaluation result of reductive stability” value is “A (The residual rate of cyclic peptide is 90% or more.)”.

With “381 (HXSYERLQFHGHEAPFRVXVKKK; not fully specified; Description of Artificial Sequence: Cyclic peptide) [compound 381]”, the “Evaluation result … to FGFR” value in data set [1] is “A (The binding amount is 0.7 molecules of the cyclic peptide/one molecule of FGFR or more.)”. For the same substance, the “Evaluation result of reductive stability” value in data set [2] is “A (The residual rate of cyclic peptide is 90% or more.)”.

As for “389 (H[Orn]SYERLIFHGHEAPFWV[hCys]KKK; bridge 2-19; not fully specified (residue 2, bridges); printed as H-(Orn(acetyl))-SYERLIFHGHEAPFWV-(Hcy)-KKK) [compound 389]”, the “Evaluation result … to FGFR” value in data set [1] was “A (The binding amount is 0.7 molecules of the cyclic peptide/one molecule of FGFR or more.)”. In addition, the “Evaluation result of reductive stability” value in data set [2] is listed as “A (The residual rate of cyclic peptide is 90% or more.)”.

(Values after patent publication US20260008818A1, “CYCLIC PEPTIDE OR SALT THEREOF, AND USES THEREOF” (FUJIFILM Corporation, priority 2023, published 2026).)
